Experimental data reported in patent US9675625B2, “Medicament comprising recombinant antibody against chemokine receptor CCR4” (KYOWA HAKKO KIRIN CO., LTD., priority 2003, dated 2017).

Assays:
CCRF-CEM cells [1] = assay: antitumor effect of KM 2760 and cyclophosphamide in combination, CCRF-CEM cells grafted in nude mouse; format: in vivo, Balb/c nude mouse; details: Day 4; KM 2760 800 μg per mouse Day 0 and Day 4; CPA 65 mg/kg Day 0; tail vein
Experimental: CCRF-CEM cells (human T cell leukemia cell line) were suspended in RPMI 1640 medium (Gibco BRL) at a concentration of 2×10^8 cells/mL, and 100 μL of the suspension was grafted intradermally in the right flank of Balb/c nude mice (Nippon Crea, male). On Day 18 after the cell grafting, a diameter of a tumor was measured with calipers, and a tumor volume was calculated using formula 2 in Example 2.
Individuals having the tumor volume within the range of 116 to 349 mm^3 (on average 219 mm^3) were selected, and grouped such that the average tumor volume to be almost the same. Each of the following agent A to D was administered to the mice. Incidentally, the grouping day was defined as Day 0.
The experiment was conducted with groups each consisting of five mice. Each of the agents was diluted with a physiological saline (Otsuka Seiyaku), and the diluent was administered from the tail vein. On Day 4, the tumor volume was measured. The antitumor effect was evaluated by comparing an average values of a tumor volume change (V/V0) on each measurement day when the tumor volume on Day 0 in each group was defined as V0.

CCRF-CEM cells [2] = assay: antitumor effect of KM 2760 and etoposide in combination, CCRF-CEM cells grafted in nude mouse; format: in vivo, Balb/c nude mouse; details: Day 7; KM 2760 800 μg per mouse Day 0 and Day 4; VP-16 10 mg/kg Day 0 to Day 4; tail vein
Experimental: CCRF-CEM cells (human T cell leukemia cell line) were suspended in RPMI 1640 medium (Gibco BRL) at a concentration of 2×10^8 cells/mL, and 100 μL of the suspension was grafted into the ventral skin of Balb/c nude mice (Nippon Crea, male). On Day 17 after the cell grafting, a diameter of a tumor was measured with calipers, and a tumor volume was calculated using formula 2 in Example 2.
Individuals having the tumor volume within the range of from 121 to 348 mm^3 (on average 195 mm^3) were selected, and grouped such that the average tumor volume to be almost the same. Each of the following agents A to D was then administered to the mice. Incidentally, the grouping day was defined as Day 0.
B. Group of administering KM 2760 alone: 800 μg of KM2760 was administered per mouse on Day 0 and Day 4.
C. Group of administering etoposide (hereinafter referred to as VP-16; Lastet injection, Nippon Kayaku Co., Ltd.) alone: 10 mg/kg of VP-16 was administered per mouse for 5 days from Day 0 to Day 4. […]
The experiment was conducted with groups each consisting of five mice. […] On Day 7, the tumor volume was measured. The antitumor effect was evaluated by comparing average values of a tumor volume change (V/V0) on Day 7 when the tumor volume on Day 0 in each group was defined as V0.

CCR4/EL4 cells [3] = assay: antitumor effect of KM 2760 and G-CSF in combination, CCR4/EL4 cells grafted into ventral skin of C57BL/6 mice; format: in vivo, C57BL/6 mouse
Experimental: CCR4/EL4 cells (WO 01/64754) were suspended, in RPMI 1640 medium (Gibco BRL) at a concentration of 1×10^6 cells/mL, and 100 μL of the suspension was grafted into the right ventral skin of C57BL/6 mice (Nippon Crea, male, 8 weeks old). After, mice were grouped into A to D, each of the agents A to D were administered to each mouse. Incidentally, the day on which the tumor was grafted was defined as Day 0.
B. Group of administering KM 2760 alone: 100 μg of KM2760 was intravenously administered per mouse on Day 0 and Day 4.
C. Group of administering G-CSF alone: 10 μg of G-CSF (Neuup Injection 100, manufactured by Kyowa Hakko Kogyo Co., Ltd.) was subcutaneously administered per mouse once a day for 10 days from 4 days before the tumor grafting (hereinafter referred to as Day-4) to Day 5.
The experiment was conducted with group A consisting of 10 mice and groups B, C and D each consisting of 7 mice. […] Each of the diluent was administered at 100 μL. A diameter of a tumor was measured with calipers chronologically from Day 0 of each group. A tumor volume was calculated using formula 2 in Example 2.
Since the tumor death of the mouse was started in group A from Day 17 on, the evaluation of the tumor volume was finished on Day 14.
The antitumor effect (T/C value) in each group was evaluated by calculation using the following formula 3 for comparison between the average value of the tumor volume in group A and the average values of the tumor volume in each group on the final evaluation day (Day 14). (T/C value)=(average value of tumor volume in each group on Day 14)/average value of tumor volume in group A on Day 14) (Formula 3)

CCR4/EL4 cells [4] = assay: antitumor effect of KM 2760 and IFN-α in combination, CCR4/EL4 cells grafted into tail vein of C57BL/6 mice, liver weight ratio; format: in vivo, C57BL/6 mouse
Experimental: CCR4/EL4 cells were suspended in RPMI 1640 medium (manufactured by Gibco BRL) at a concentration of 5×10^5 cells/mL, and 100 μl of the suspension was grafted into the tail vein of C57BL/6 mice (CLEA Japan Inc., male, 8 weeks old). Further, mice were grouped into A to D, and each of the agents A to D were administered to the mice. Incidentally, the day on which the tumor was grafted was defined as Day 0.
B. Group of administering IFN-α alone: 5×10^4 units of IFN-α (Universal type I interferon, manufactured by PBL Biomedical Laboratories) was intravenously administered per mouse once a day for 5 days from Day 1 to Day 5.
The experiment was conducted with group A consisting of 7 mice and groups B, C and D each consisting of 6 mice. […] The weight of all mice was measured on Day 14. After etherization and exsanguination, mice were brought to euthanasia by dislocation of the cervical spine. The liver was extracted, and the weight of the liver was then measured. A ratio of the liver weight to the weight of each individual (hereinafter referred to as a weight ration of a liver) was calculated by percentage.
The antitumor effect was evaluated by comparing the liver weight ratio (average value of six mice) of untreated healthy mice measured simultaneously and the liver weight ratio of each group increased by metastasis of tumor cells.
Further, the residual amount of tumor cells in the liver in each group was calculated as a T/C value using the following formula. T/C=(average values of a weight ration of a liver of each group−average value of a weight ration of a liver of an untreated mouse)/(average value of a weight ration of a liver of a negative control group−average value of a weight ration of a liver of an untreated mouse) (Formula 4)

B1: KM 2760: anti-CCR4 human chimeric antibody KM 2760 (FERM BP-7054, WO 01/64754) (antibody, V domains shown)
VH: EVQLVESGGDLMKPGGSLKISCAASGFIFSNYGMSWVRQTPDMRLEWVATISSASTYSYYPDSVKGRFTISRDNAENSLYLQMNSLRSEDTGIYYCGRHSDGNFAFGYWGRGTLVTVSA
VL: DVLMTQTPLSLPVSLGDQASISCRSSRNIVHINGDTYLEWYLQRPGQSPKLLIYKVSNRFSGVPDRFSGSGSGTDFTLKISRVEAEDLGVYYCFQGSLLPWTFGGGTRLEIRR
T/C (V/V0 of group divided by V/V0 of negative control group) (CCRF-CEM cells [1]): 0.80 | T/C (V/V0 of group divided by V/V0 of negative control group) (CCRF-CEM cells [2]): 0.65 | T/C value (average tumor volume of group / group A) (CCR4/EL4 cells [3]; Day 14, KM 2760 100 μg per mouse i.v. Day 0 and Day 4, G-CSF 10 μg per mouse s.c. once a day Day-4 to Day 5): 0.48 | antitumor effect compared to untreated group A (tumor volume) (CCR4/EL4 cells [3]; FIG. 6, up to Day 14): low | T/C value (residual amount of tumor cells in the liver, from liver weight ratio) (CCR4/EL4 cells [4]; Day 14, KM 2760 0.5 μg per mouse i.v. Day 1 and Day 5, IFN-α 5×10^4 units per mouse i.v. Day 1 to Day 5): 0.52 | antitumor effect compared to untreated group A (liver weight ratio) (CCR4/EL4 cells [4]; FIG. 7, Day 14): low
